From publication PMC8009664

Biological target: calmodulin (CaM), recombinant bovine 1-149 (UniProt P62157)
Assay: ITC, peptide titrated into CaM
Settings: reference: unphosphorylated H1H2; sites S648

Substance: NHE1 (Na+/H+ exchanger 1, hNHE1) H1H2, 622-692 (from UniProt P19634) Akt-phosphorylated H1H2 (pS648)
- KD: weaker; reference Kd,1 0.27 ± 0.07; Kd,2 560 ± 10
